From article PMC4937376, “CpsR, a GntR family regulator, transcriptionally regulates capsular polysaccharide biosynthesis and governs bacterial virulence in Streptococcus pneumoniae” come the findings set out here.

The target in this series is 6His-CpsR (Streptococcus pneumoniae D39, UniProt A0A0H2ZMA3 1-247). As to the kind of experiment: EMSA; 0.25 uM probe; EMSA: 20 ul, LightShift kit buffer (composition not given) with 50 ng/ul poly(dI-dC), 20 min room temperature, 6% gel; footprinting: 400 ng probe in 40 ul, 30 min at 25 C. Particulars: protein: recombinant; tags: 6His; chain copies: 2; label: 5'-biotin (top strand); blunt. Background: Mobility shift assays separate free from complexed probe on a gel.

B1: WT 33-mer (dsDNA)
DNA 1: TGTCATGTTCTTATTTCATTTTACTATATTTTT
DNA 2: AAAAATATAGTAAAATGAAATAAGAACATGACA
For B1, the binding result was “binds”.
